{
  "source": "paper PMC5691135",
  "about": "“The semiquinone swing in the bifurcating electron transferring flavoprotein/butyryl-CoA dehydrogenase complex from Clostridium difficile” (Nature Communications, 2017)",
  "proteins": {"B1": {"name": "Butyryl-CoA dehydrogenase (Bcd) of the EtfAB/Bcd complex from Clostridium difficile (enzyme)", "chain": "MDLNSKKYQMLKELYVSFAENEVKPLATELDEEERFPYETVEKMAKAGMMGIPYPKEYGGEGGDTVGYIMAVEELSRVCGTTGVILSAHTSLGSWPIYQYGNEEQKQKFLRPLASGEKLGAFGLTEPNAGTDASGQQTTAVLDGDEYILNGSKIFITNAIAGDIYVVMAMTDKSKGNKGISAFIVEKGTPGFSFGVKEKKMGIRGSATSELIFEDCRIPKENLLGKEGQGFKIAMSTLDGGRIGIAAQALGLAQGALDETVKYVKERVQFGRPLSKFQNTQFQLADMEVKVQAARHLVYQAAINKDLGKPYGVEAAMAKLFAAETAMEVTTKAVQLHGGYGYTRDYPVERMMRDAKITEIYEGTSEVQRMVISGKLLK", "notes": "Butyryl-CoA dehydrogenase of Clostridium difficile DSM 1296 (ATCC 9689), gene bcd (CD 1054); N-terminal helical domain 1-116, medial β-sheet domain 117-227, C-terminal helical domain 228-378; Tetramer that forms the core of the (EtfAB/Bcd)4 complex; also called Bcd1; Bcd2"}},
  "target": "the molecule itself",
  "assay": "crystal structure; X-ray structure of the co-produced and co-purified (EtfAB/Bcd)4 complex at 3.1 Å, D state; crystallised in 0.1 M calcium acetate, 14 % (v/v) PEG 400, 0.1 M MES, pH 6.5; protein at 20 mg/ml in 10 mM MOPS and 1 mM FAD, pH 7.0",
  "data": [
    {"protein": "B1", "values": [
      {"measurement": "stoichiometry N", "value": 4}
    ]}
  ]
}
